Measurements: publication PMC3687086 (Nature, 2013)

T1: Rpt1 (subunit of the base) (yeast, UniProt P33299 1-467)
T1 sequence: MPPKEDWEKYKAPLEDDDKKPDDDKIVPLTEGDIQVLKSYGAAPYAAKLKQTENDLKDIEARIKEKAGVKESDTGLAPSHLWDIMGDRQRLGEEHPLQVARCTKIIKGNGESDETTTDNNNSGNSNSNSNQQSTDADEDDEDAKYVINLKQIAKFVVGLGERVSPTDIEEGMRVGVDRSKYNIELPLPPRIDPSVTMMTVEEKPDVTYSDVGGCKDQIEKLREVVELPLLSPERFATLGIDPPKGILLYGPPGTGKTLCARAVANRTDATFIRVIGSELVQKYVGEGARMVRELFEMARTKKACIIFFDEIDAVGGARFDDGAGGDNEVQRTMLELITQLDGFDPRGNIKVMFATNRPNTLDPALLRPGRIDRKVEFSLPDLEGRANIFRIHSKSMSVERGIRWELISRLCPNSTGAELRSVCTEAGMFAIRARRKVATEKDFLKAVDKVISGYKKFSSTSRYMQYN

B1: CP subunit α3 (natural protein)
chain: MGSRRYDSRTTIFSPEGRLYQVEYALESISHAGTAIGIMASDGIVLAAERKVTSTLLEQDTSTEKLYKLNDKIAVAVAGLTADAEILINTARIHAQNYLKTYNEDIPVEILVRRLSDIKQGYTQHGGLRPFGVSFIYAGYDDRYGYQLYTSNPSGNYTGWKAISVGANTSAAQTLLQMDYKDDMKVDDAIELALKTLSKTTDSSALTYDRLEFATIRKGANDGEVYQKIFKPQEIKDILVKTGITKKDEDEEADEDMK
B2: CP subunit α4 (natural protein)
chain: MSGYDRALSIFSPDGHIFQVEYALEAVKRGTCAVGVKGKNCVVLGCERRSTLKLQDTRITPSKVSKIDSHVVLSFSGLNADSRILIEKARVEAQSHRLTLEDPVTVEYLTRYVAGVQQRYTQSGGVRPFGVSTLIAGFDPRDDEPKLYQTEPSGIYSSWSAQTIGRNSKTVREFLEKNYDRKEPPATVEECVKLTVRSLLEVVQTGAKNIEITVVKPDSDIVALSSEEINQYVTQIEQEKQEQQEQDKKKKSNH

How the values were obtained:
[1] = molecular target: Rpt2 (subunit of the base) (yeast, UniProt P40327 1-437); assay: cryo-EM structure
Sequence of Rpt2 (subunit of the base) (P40327 whole entry): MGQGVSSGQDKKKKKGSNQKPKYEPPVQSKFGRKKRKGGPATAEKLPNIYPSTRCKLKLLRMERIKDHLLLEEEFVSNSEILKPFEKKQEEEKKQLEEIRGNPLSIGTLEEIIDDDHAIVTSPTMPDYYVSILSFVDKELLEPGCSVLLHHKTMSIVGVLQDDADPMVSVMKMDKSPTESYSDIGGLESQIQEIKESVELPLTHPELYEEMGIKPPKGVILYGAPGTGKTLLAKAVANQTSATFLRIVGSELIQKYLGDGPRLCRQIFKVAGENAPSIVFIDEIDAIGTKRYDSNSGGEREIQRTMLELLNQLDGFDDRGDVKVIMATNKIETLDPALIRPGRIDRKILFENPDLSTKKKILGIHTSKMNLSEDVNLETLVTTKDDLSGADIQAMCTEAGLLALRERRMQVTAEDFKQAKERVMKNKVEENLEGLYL

[2] = molecular target: T1, Rpt1 (subunit of the base); assay: cryo-EM structure

Binder | binding result [1] | binding result [2]
B1 | binds | –
B2 | binds | binds
